Reference: the supplement of paper PMC12764529
± gives the half width of the 95% confidence interval.

Experiments:
[1] = folding stability dG unfold from chymotrypsin proteolysis; higher = more stable
How it was run: (§1)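 Only designs with AlphaFold2 dimer inter-PAE above 15 were retained; each was a mini-protein under 80 residues with no cysteine, in a PA-tagged cDNA display construct. After digestion with trypsin and chymotrypsin and sequencing, K50 was inferred by Bayesian fitting of counts, and unfolding free energy was derived per protease or combined against a sequence-predicted unfolded-state K50 and a shared folded-state K50.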

[2] = folding stability dG unfold from trypsin proteolysis; higher = more stable
How it was run: as §1

[3] = folding stability dG unfold (combined trypsin and chymotrypsin); higher = more stable
How it was run: as §1

Sequence	folding stability dG unfold [1] [kcal/mol]	folding stability dG unfold [2] [kcal/mol]	folding stability dG unfold [3] [kcal/mol]
SAGGSAKYYYIVAEIDLPNKKVRFVKKVKKGDVEKFKAEIKKAFPGKKIKVKVIEFESEEEAKKAASAGGSA [r15_889_TrMRF]	4.373 ± 0.043	3.13 ± 0.14	4.01 ± 0.088
SAGGSAGGSASLSPDEEVEITDPANGTKYKVTKLPDGTVLLENPETGETYVRTDSNDWKLTSAGGSAGGSAG [r3_96_JUSTAS]	0.88 ± 0.18	0.88 ± 0.04	0.932 ± 0.15
SAGMETVKIKVRVKVTVRERLPDGTVKTREFELTLEIEVEVEPGQTAEELAKKLAEEFNIEEVEIEKVPSAG [r5_994_TrROS_Hall]	3.83 ± 0.58	2.57 ± 0.19	3.29 ± 0.38
SIKIRKEKTPNGYYEITFEFPFPDGWPMTIEANVQVDPENGKVKVDIKIEDPNLPPEFKEFIENFEFKVPSA [r9_715_TrROS]	2.97 ± 0.086	1.75 ± 0.079	2.52 ± 0.23
SAGGSAGGSAGSIVTIPIAGLSPEEAEALIKEAIAAGEDKPIILVDEDGTPTVVPASELKSAGGSAGGSAGG [r11_541_JUSTAS]	-0.408 ± 0.035	-0.189 ± 0.052	-0.242 ± 0.079
SMRIHDSNGQSYTIMIRTPDPNVTPEKIVKAIDEAGYKVTEIQRPPEKGHVHINIRVRDRERAIEAIKELSA [r9_1154_TrROS]	-0.253 ± 0.18	0.231 ± 0.12	0.0402 ± 0.12
SMTAEVTLTIVYPDGTSTTLPMTFPADDPEALRAAIRAAVAAAGYTPTALQMTFTAQPDGSVRVDVTVTVAS [r1_281_JUSTAS]	5.7 ± 0.066	4.1 ± 0.059	5.61 ± 0.077
SAGGSAGGSAGIKIVAPSPELADMIAKEIAKEFGLPGKIKDIEIEVIPYKPTPNGGYQPYSAGGSAGGSAGG [r17_237_TrROS]	-0.363 ± 0.75	-0.14 ± 0.26	-0.383 ± 0.81
SSLSIPGATKEEFEEIAEELEKKNPGVKVTVTYDPENGVITITITKPVKDKKGNLIGTETEVITITVTKPSA [r9_378_JUSTAS]	2.26 ± 0.072	3.05 ± 0.41	2.41 ± 0.14
SAGGSAGGSDDMIPIPFKIKLKDPNGKPHEFPVTIWINPEDGMIMIRYPNQPIMIDPDKIEIESAGGSAGGS [r20_48_TrROS]	1.07 ± 0.19	0.975 ± 0.089	1.01 ± 0.16
SAGGSGSSMSVSVSVTTSPVSVDPNKPVPIEVATTTTPVSSYDPVTGTSSTTTTTTTVPLGNPEAASAGGSA [r2_489_JUSTAS]	1.42 ± 0.044	2.62 ± 0.081	1.98 ± 0.051
SAGGSAGGSAKKKYVFTIPVKPNTFNPEKLKKFIEKAFPEFKNYEIKVEVLPDGTAKVYIEASAGGSAGGSA [r18_65_TrMRF]	4.4 ± 0.11	2.69 ± 0.12	3.89 ± 0.24
SAGGVLTRVEIEIVEPGTGVPKRFEALLETGDDGTITLLLPDGTVIELPPTANIKILSEEVLSPSELSAGGS [r16_223_JUSTAS]	0.0233 ± 0.17	2.02 ± 0.1	1.37 ± 0.21
SMKLKLYDPATGKWYELTYDPAKGTVTITYPDGKVITRPVKSIEVNPETGTITITFPDSTETFTVPESLISA [r9_325_JUSTAS]	3.934 ± 0.031	3.42 ± 0.089	3.79 ± 0.066
SAGGSAGGSPMKIEAVELEDGTVAYRLEDGTVLLVTKNEDGTYTVKVFKNGKLVEEKEIKLPPSAGGSAGGS [r12_451_TrROS_Hall]	3.277 ± 0.03	2.28 ± 0.069	2.99 ± 0.071
SAGGSAGGSAGMVVSVDRATGTFTATDPALGTTTTVPGSEEEVRAYWAERFPDRPVTITASAGGSAGGSAGG [r11_614_JUSTAS]	-0.221 ± 0.38	-0.00347 ± 0.076	-0.0207 ± 0.15
SAGPTVRQETFGEKYRIEVEVSPDGTVKVKIVNENGEVTELEGKVEPGKPVVLPFPLDGHVVNVVVLPASAG [r5_237_TrMRF]	2.91 ± 0.06	1.54 ± 0.089	2.52 ± 0.13
